Source: paper PMC8287531 (2021)
Where no end group is shown, it is not given here.

Target: T1, talin R7R8 rod domains (UniProt Q9Y490 1359-1659)
T1 chain: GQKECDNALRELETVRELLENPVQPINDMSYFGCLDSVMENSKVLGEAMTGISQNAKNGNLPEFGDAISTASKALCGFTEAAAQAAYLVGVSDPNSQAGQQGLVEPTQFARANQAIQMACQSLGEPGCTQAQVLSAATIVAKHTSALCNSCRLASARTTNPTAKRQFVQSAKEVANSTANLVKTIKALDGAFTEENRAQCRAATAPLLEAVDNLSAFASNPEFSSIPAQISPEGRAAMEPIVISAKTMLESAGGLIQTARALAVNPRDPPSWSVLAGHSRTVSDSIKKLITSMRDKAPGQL
Experiment: FP

- Kd: 3.6 µM
B1: RIAM(4-30) peptide, fluorescein-labeled (peptide)
peptide: SEDIDQMFSTLLGEMDLLTQSLGVDTC
modifications: also: fluorescein-labeled, position not given here
